{"source": "patent US8003357B2", "about": "“Acidophilic enzymes” (Helmholtz-Zentrum Fuer Infektionsforschung GmbH, priority 2005, dated 2011)", "molecules": {"B1": {"name": "LigFA: DNA ligase obtainable from Ferroplasma acidiphilum, 595 amino acids, Seq. ID No. 3, Fe2+ dependent (protein, listed as Ferroplasma acidiphilum)", "chain": "MHLMNMVDPDFNSLIELSKSAGDMTKIEPAMLRNFLDESSLSSRGAPVEIKEIKDYKIKLDGRTLNARMYDDNNAKSAILYYHGGGFLFGNIETYDNYCRFLAKESGVKIISIEYRLAPEHKFPDAFNDAYDSFHYIAKKKKDFGIEGRIGVAGDSAGANLAAALCLKCRDGKTEMPAVQVLFYPSLAPDNFSRSFIEYSDNYVLTGKMIRYFGNMYSKNMQDLINPYFSPLVADDFSNLPPAIMVTNEYDPLRDPEETYVKKLREAGVRAVGIRGIGMIHGSATDFEVSDGARNIVKMVARIIPDYL", "modifications": "CDS (1)..(927) est FA", "notes": "ID No. 3, Fe2+ dependent"}}, "assay_type_in_all_cases": "biochemical", "key": {"[1]": {"test": "pH and temperature dependence, stability and activity of recombinant acidic enzymes", "method": "The acidic enzymes according to the invention were expressed in E. coli using the genomiccoding sequence for the respective enzyme from Ferroplasma acidiphilum, which are described in detail below. For enzymatic conversions, reaction conditions were in 100 mM sodium acetate buffer, 100 mM citrate buffer, 100 mM HEPES buffer for 2 minutes at 30° C., using p-nitrophenol propionate as the substrate for esterase, starch in the case of glycosidases, and HindIII digested λ DNA for ligase.\nThe activity was assayed using p-nitrophenol propionate as a substrate for esterase, starch for αGluFA and GlyFA1, GlyFA2, and HindIII digested λ DNA for LigFA.\nThe acidic enzymes according to the invention in vitro show similar elevated reaction temperatures. Substrates were as described for FIG. 2 above.\nAn overview of catalytic and molecular properties of acidic enzymes that were heterologously expressed in E. coli is given in the following Table III: […]"}, "[2]": {"test": "Fe2+ content (ICP-MS) and Fe2+ dependence of activity, dialysis against EDTA", "settings": "relative to wild type = 100; after dialysis against 1 mM EDTA; 100 mM sodium citrate, 10 mM FeCl2", "method": "The UV-VIS absorption spectra of purified acidic enzymes are shown in FIG. 4, wherein the uninterrupted lines refer to Fe^2+ containing enzymes and the interrupted lines refer to enzymes after dialysis against EDTA containing buffer. The λ-max values found at ca. 572 nm correlate with the Fe^2+ content, i.e. disappear after incubation with EDTA or DTT for 24 h. ICP-MS analysis confirmed the presence of 0.82±0.10 mol Fe in EstFA, 0.34±0.08 mol Fe in αGluFA, […] and 0.63±0.09 mol Fe in LigFA.\nIn FIG. 5, relative activities of acidic enzymes with varying content of Fe^2+ are shown. For analysis, purified enzymes were incubated in 1 mM EDTA. At time intervals indicated, two aliquots were removed, one was used for hydrolysis of respective substrates, the other for ICP-MS analysis of Fe. For relative activities, activities before incubation with EDTA were used as 100% values.\nWhen further investigating the dependence of the acidic enzymes according to the invention on Fe^2+, relative activity for EstFA, αGluFA and LigFA were investigated for their natural Fe^2+ content, e.g. wild-type, which was set to 100%, in comparison to the activity after dialysis against a 1 mM EDTA containing buffer."}, "TOP 2 fragmented DNA": {"system": "TOP 2 fragmented DNA", "test": "Religation of topoisomerase 2 induced DNA breaks", "settings": "LigFA pH 4.0 to 2.0; T4 ligase acidic pH values; FIG. 9", "method": "For a comparison of the religation activities of acidic LigFA to T4 ligase on DNA containing breaks caused by topoisomerase 2 (TOP 2), ligation activities were determined in vitro at various pH values. The results are shown in the non-denaturing agarose gel of FIG. 9.\nDNA was incubated with TOP 2 to induce DNA damage. At pH 5.0, TOP 2 caused DNA breaks (lane 2) but not at pH 3.0 (lane 3)."}, "[3]": {"system": "5′ phosphorylated oligonucleotides; Sau3A digested λ DNA", "test": "DNA ligation using LigFA", "settings": "40° C.", "method": "For DNA ligation, double-stranded DNA fragments, each comprising a complementary 3′ overhang which were phosphorylated in 5′ can be ligated in a total volume of 20 μL ligation buffer (100 mM Na-citrate, pH 3.0, 10 μM Fe^2+, 0.01-0.1 mM ATP, optionally 0.5 mM dithiothreitol), 0.1-5 micrograms DNA and 1 to 20 nmoles ligase. The reaction conditions are 40° C. for 5 minutes to 2 hours, the reaction can be stopped by the addition of stop buffer 98% (vol/vol) formamide, 10 mM EDTA, 0.05% bromophenol blue, 0.05% xylene cyanol, 0.2% SDS), followed by heating to 95° C. for 5 minutes or, alternatively, by adding stop/loading buffer (30% sucrose, 150 mM EDTA, 0.15% SDS, 0.03% bromophenol blue), and heating to 90° C. for 2 minutes.\nOligonucleotides were phosphorylated in 5′.\nReactions were carried out in different buffers: HEPES, pH 7.0 (lane 1), HEPES, pH 6.0 (lane 2), sodium acetate, pH 5.0 (lane 3), sodium acetate, pH 4.0 (lane 4), sodium citrate, pH 3.0 to 0.5 (lanes 5 to 9, respectively). For detection of ligation, gel electrophoresis on a 10% denaturing polyacrylamide gel containing 7 M urea in TBE buffer (90 mM Tris-borate, 2.5 mM EDTA), staining with ethidium bromide. A densitometric reproduction of the gel region containing 60 base fragments is represented in FIG. 7. […]"}}}
{"molecule": "B1", "values": [{"measurement": "enzymatic stability at elevated temperatures", "setting": "[1]; FIG. 2, LigFA pH 3.0, EstFA and αGluFA pH 2.0 at 40 and 50° C., GlyFA1 and GlyFA2 pH 4.0 at 40° C.", "value": "good stability"}, {"measurement": "Optimum temperature", "setting": "[1]; measured at optimum pH", "value": 40, "unit": "°C"}, {"measurement": "Optimum pH", "setting": "[1]; measured at optimum temperature", "value": "1.5-3.0"}, {"measurement": "activity, +EDTA", "setting": "[2]", "value": 0.15, "unit": "%"}, {"measurement": "religation of TOP 2 fragmented DNA at acidic pH", "setting": "TOP 2 fragmented DNA", "value": "clearly demonstrated"}, {"measurement": "ligation of Sau3A digested λ DNA", "setting": "[3]; 20 nM LigFA, 2 hours", "value": "demonstrates ligation"}, {"measurement": "ligation of two oligonucleotides (35 and 25 bases) on a 70 base oligonucleotide", "setting": "[3]; 20 nM ligFA, 5 minutes", "value": "ligation was obtained"}]}
